B1: COVIC-123 (antibody)
chain: QVQLQESGGGLVQAGGSLRLSCAASGRTFSEYAMGWFRQAPGKEREFVATISWSGGSTYYTDSVKGRFTISRDNAKNTVYLQMNSLKPDDTAVYYCAAAGLGTVVSEWDYDYDYWGQGTQVTVSSGGSGGSQVQLQESGGGLVQAGGSLRLSCAASGRTFSEYAMGWFRQAPGKEREFVATISWSGGSTYYTDSVKGRFTISRDNAKNTVYLQMNSLKPDDTAVYYCAAAGLGTVVSEWDYDYDYWGQGTQVTVSSGGGGSGGGGSEPKSCDKTHTCPPCPAPELLGGKKKPLDGEYFTLQIRGRERFEMFRELNEALELKDAQAGKEPGGGGGSGGGGSQVQLQESGGGLVQAGGSLRLSCAASGRTFSEYAMGWFRQAPGKEREFVATISWSGGSTYYTDSVKGRFTISRDNAKNTVYLQMNSLKPDDTAVYYCAAAGLGTVVSEWDYDYDYWGQGTQVTVSS
B2: COVIC-78 (antibody, V domains shown)
VH: QVQLVQSGAEVKKPGSSVKVSCKASGGTFSTSTFNWVRQAPGQGLEWMGGIIPIFGTVNYAQKFQGRVTITADESTGTAYMELSSLRSEDTAVYYCATLGQWDLLPRWGQGTLVTVSS
VL: KIVLTQSPDTLSLSPGERATLSCRASQSVDSNYLAWYQQKPGQAPRLLIYGASSRATGIPDRFSGSGSGTDFTLTISRLEPEDFAVYYCQQYGSSYTFGQGTKLEIK
B3: COVIC-337 (antibody, V domains shown)
VH: EVQLVQSGAEVKKPGSSVKVSCKASGGTFSMHTIRWVRQAPGQGLEWMGRIIPMLGIVNYAQKFQGRVTISADKSTSTAYMELSSLTSEDTAMYYCAKGSHDVFDIWGQGTMVTVSS
VL: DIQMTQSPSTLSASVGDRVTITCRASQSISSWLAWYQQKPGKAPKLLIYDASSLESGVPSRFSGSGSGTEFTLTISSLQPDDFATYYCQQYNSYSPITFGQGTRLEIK
B4: COVIC-362 (antibody, V domains shown)
VH: EVQLVESGGGLVQPGGSLRLSCKASGISVAPHAVTWVRQAPGKGLEWIGVIASNADTYYASWAKGRFTISRDNSKNTLYLQMNSLRAEDTAVYYCARHPGSAGYGYTYYYAMDPWGQGTLVTVSS
VL: DIQMTQSPSSLSASVGDRVTITCQASERVFYGIDWYQQKPGKAPKLLIYGASALWHGVPSRFSGSGSGTDYTLTISSLQPEDFATYYCQQGYMVPIGFGGGTKVEIK
B5: COVIC-35 (antibody, V domains shown)
VH: EVQLVESGGGVVQPGRSLRLSCAASGFTFSSYAMHWVRQAPGKGLEWVAVISYDGSYKYYADSVKGRFTISRDNSKNTLYLQMNSLTAEDTAVYYCAREGSRQWLVIYFDYWGQGTLVTVSS
VL: AIRMTQSPSSLSASVGDRVTITCRASQSISSYLNWYQQKPGKAPKLLIYAASSLQSGVPSRFSGSGSGTDFTLTISSLQPEDFATYYCQQSYTTFIYTFGQGTKLEIK
B6: COVIC-61 (antibody)
chain: QVQLQESGGGLVQAGGSLRLSCAASGRTFSEYAMGWFRQAPGKEREFVATISWSGGSTYYTDSVKGRFTISRDNAKNTVYLQMNSLKPDDTAVYYCAAAGLGTVVSEWDYDYDYWGQGTQVTVSSGGSGGSQVQLQESGGGLVQAGGSLRLSCAASGRTFSEYAMGWFRQAPGKEREFVATISWSGGSTYYTDSVKGRFTISRDNAKNTVYLQMNSLKPDDTAVYYCAAAGLGTVVSEWDYDYDYWGQGTQVTVSSGGGGSGGGGSKKKPLDGEYFTLQIRGRERFEMFRELNEALELKDAQAGKEPG

Target: SARS-CoV-2 spike RBD (Wuhan-Hu-1) (Severe acute respiratory syndrome …, UniProt P0DTC2)
Experiment: SPR

Row | Binder | Kd [nM]
1 | B1 | 206
2 | B2 | 393
3 | B3 | 3.02
4 | B4 | 0.00985
5 | B5 | 2.81
6 | B6 | 195

From publication PMC12014896 (2025)
